Results from US20190022241A1 (AbbVie / Abbott, published 2019).

B1: SC17.17 (antibody, V domains shown)
VH: EVQLQQSGPEVMKPGASVKMSCKASGYTFTDYNMHWVKQNQGKSLEWIGEINPNIGGTGYNQKFKGKATLTVHKSSSTAYMELRSLTSEDSAVYYCARTYSYYSYEFAYWGQGTLVTVSA
VL: QIVLTQSPAIMSASPGEKVTMTCSASSSVSYMHWYQQKSGTSPKRWIYDTSKLPSGVPARFSGSGSGTSYSLTISSMEAEDAATYYCQQWSSTPPTFGAGTKLELK
notes: murine mAb
B2: SC17.34 (antibody, V domains shown)
VH: EVQLQQSGPELVKPGSSVKISCKASGYTFTDYNMDWVKQSHGKRLEWIGYIYPDNGGAGYNQKFKGKATLTVDKSSSTAYMELRSLTSEDSAVYYCSRSITTAWFAYWGQGTLVTVSA
VL: DIKMTQSPSSMYASLGERVTITCKASQDINSYLSWFQQKPGKSPKTLIYRANRLVDGVPSRFSGSGSGQDYSLTISSLEYEDMGIYYCLQYDEFPPTFGGGTKLEIK
notes: murine mAb

Experiments:
[1] = target: T1, human SEZ6L ECD-His (human, UniProt Q9BYH1 29-955); assay: ELISA on plates coated with SEZ6L protein
T1 construct: whole entry named
T1 sequence: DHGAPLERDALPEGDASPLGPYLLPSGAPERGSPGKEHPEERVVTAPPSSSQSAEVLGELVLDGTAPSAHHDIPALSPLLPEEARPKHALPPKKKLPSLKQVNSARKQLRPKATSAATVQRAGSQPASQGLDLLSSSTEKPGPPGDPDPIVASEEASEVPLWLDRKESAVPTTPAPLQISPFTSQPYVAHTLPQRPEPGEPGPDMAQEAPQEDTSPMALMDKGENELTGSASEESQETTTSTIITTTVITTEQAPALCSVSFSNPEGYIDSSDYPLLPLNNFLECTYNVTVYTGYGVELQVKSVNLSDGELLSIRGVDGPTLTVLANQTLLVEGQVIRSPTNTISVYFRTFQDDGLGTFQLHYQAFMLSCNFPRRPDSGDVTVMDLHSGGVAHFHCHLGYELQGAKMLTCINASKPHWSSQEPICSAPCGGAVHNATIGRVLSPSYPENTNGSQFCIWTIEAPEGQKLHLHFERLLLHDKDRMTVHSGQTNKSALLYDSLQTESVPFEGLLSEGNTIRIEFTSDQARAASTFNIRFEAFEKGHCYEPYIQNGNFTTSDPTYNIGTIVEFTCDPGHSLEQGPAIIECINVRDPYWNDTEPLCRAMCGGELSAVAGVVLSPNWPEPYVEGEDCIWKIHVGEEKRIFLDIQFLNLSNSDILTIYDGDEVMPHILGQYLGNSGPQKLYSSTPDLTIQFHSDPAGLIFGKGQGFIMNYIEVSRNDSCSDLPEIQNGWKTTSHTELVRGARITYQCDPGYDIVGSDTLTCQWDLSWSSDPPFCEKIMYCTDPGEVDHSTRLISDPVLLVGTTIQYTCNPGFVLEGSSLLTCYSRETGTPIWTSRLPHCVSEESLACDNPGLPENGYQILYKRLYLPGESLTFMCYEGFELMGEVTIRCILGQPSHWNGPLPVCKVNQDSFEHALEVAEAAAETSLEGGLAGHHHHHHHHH
Experimental: To determine cross reactivity to family member proteins, SEZ6L and SEZ6L2, an ELISA-based assay was used. Plates were coated with SEZ6, SEZ6L, or SEZ6L2 proteins at 0.2 μg/mL in PBS overnight. After washing with PBS containing 0.05% (v/v) Tween 20 (PB ST), the wells were blocked with 2% (w/v) BSA in PBS (PB SA), 100 μL/well for 1 hour at room temperature. Antibody was then added at 1 μg/mL in 100 μL PBSA for 1 hour at room temperature. After washing with PBST, 100 μL/well HRP-labeled goat anti-mouse IgG diluted 1:2,000 in PBSA for 1 hour at room temperature. […] After developing, an equal volume of 2M H₂SO₄ was added to stop substrate development and analyzed by spectrophotometer at OD 450.

[2] = target: T2, rSEZ6-ECD-His (rat, UniProt Q7TSK2 20-922 (mouse entry)); assay: bio-layer interferometry (ForteBio RED) or surface plasmon resonance (Biacore 2000) on rat SEZ6-His; the table does not say which; column Rat XR (Kd, nM)
T2 construct: the whole entry is named; also called rat recombinant SEZ6-His; rat SEZ6 ECD
T2 chain: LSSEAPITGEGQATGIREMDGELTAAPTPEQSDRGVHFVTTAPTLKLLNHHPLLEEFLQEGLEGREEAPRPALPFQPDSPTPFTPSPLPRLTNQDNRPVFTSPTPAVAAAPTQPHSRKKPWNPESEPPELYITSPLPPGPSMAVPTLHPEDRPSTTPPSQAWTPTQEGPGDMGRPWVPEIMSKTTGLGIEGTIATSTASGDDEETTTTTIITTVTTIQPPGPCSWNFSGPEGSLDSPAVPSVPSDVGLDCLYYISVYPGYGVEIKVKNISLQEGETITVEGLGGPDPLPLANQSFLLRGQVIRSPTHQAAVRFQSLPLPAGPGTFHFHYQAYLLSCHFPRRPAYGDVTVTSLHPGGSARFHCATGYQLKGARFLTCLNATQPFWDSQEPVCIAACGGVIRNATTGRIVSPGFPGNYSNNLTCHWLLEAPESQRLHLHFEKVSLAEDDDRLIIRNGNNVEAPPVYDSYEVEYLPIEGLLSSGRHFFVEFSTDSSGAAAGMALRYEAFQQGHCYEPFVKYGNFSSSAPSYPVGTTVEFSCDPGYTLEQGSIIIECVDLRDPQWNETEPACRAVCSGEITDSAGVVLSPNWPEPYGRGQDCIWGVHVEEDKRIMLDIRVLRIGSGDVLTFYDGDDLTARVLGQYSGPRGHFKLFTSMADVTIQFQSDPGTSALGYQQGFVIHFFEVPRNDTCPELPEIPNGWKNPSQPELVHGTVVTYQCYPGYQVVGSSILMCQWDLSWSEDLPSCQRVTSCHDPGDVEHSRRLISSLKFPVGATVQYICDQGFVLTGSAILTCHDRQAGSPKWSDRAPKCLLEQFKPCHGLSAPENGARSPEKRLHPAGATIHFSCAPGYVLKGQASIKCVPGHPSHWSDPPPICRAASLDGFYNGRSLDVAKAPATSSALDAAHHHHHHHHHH
Text: (§1) Various methods were used to analyze the binding and immunochemical characteristics of selected SEZ6 modulators generated as set forth above.

[3] = target: T3, mouse SEZ6 on Neuro2a cells (mouse, UniProt Q7TSK2 20-991); assay: flow cytometry on Neuro2a cells expressing mouse SEZ6
T3 construct: endogenous on Neuro2a cells; also called murine SEZ6; mSEZ6
Experimental: Briefly 1×10⁵ cells per well of Neuro2a, RIN-5mF, or yeast displaying cynomolgus SEZ6 cells were incubated for 30 minutes with 50 μL PBS (2% FCS) buffer with 5 μg/mL antibody. […] After incubating for 15 minutes cells were washed twice with the PBS buffer and re-suspended in the same with DAPI for flow cytometry analysis of Neuro2a and Rin-m5F or buffer without DAPI for flow cytometric analysis of yeast cells with cSEZ6.

[4] = target: T4, hSEZ6-ECD-His (human, UniProt Q53EL9 20-925); assay: bio-layer interferometry (ForteBio RED) or surface plasmon resonance (Biacore 2000) on human SEZ6-His; the table does not say which; column Hu Affinity (Kd, nM)
T4 construct: the whole entry is named; also called recombinant SEZ6-His; human recombinant SEZ6-His
Text: as §1

T3 sequence (Q7TSK2 20-991): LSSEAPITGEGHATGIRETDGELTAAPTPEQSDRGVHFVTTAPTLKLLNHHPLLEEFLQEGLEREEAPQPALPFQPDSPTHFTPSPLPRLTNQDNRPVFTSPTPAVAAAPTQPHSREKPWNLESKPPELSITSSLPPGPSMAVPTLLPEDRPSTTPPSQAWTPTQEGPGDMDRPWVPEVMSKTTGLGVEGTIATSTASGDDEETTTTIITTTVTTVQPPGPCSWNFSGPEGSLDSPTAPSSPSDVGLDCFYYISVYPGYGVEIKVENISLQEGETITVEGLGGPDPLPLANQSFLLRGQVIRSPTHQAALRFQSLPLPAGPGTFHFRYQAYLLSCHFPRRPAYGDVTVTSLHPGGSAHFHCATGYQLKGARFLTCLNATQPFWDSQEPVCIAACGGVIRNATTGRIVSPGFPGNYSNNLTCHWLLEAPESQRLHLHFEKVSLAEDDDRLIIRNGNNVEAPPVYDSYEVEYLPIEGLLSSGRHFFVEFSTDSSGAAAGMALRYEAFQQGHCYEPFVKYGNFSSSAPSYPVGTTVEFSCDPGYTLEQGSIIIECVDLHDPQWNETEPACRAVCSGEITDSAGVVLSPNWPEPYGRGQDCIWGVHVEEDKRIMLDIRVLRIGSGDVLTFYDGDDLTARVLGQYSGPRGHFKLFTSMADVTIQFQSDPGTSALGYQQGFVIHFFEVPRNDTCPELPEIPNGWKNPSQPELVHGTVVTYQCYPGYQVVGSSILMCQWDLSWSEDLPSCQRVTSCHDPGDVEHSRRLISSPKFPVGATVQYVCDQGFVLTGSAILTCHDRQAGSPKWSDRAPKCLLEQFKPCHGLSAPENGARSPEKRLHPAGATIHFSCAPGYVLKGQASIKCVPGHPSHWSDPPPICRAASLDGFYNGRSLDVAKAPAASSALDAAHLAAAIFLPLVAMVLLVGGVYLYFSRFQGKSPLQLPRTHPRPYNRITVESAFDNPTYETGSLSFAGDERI

Row | Binder | binding result [1] | Kd [2] | binding result [3] | Kd [4]
1 | B1 | no binding (tested: 1 µg/mL) | 5 nM | no binding (tested: 5 µg/mL) | 1.8 nM
2 | B2 | no binding (tested: 1 µg/mL) | 79.5 nM | no binding (tested: 5 µg/mL) | 15.1 nM
